{"source": "patent US20020019514A1", "about": "(Harvard, published 2002)", "binders": {"B1": {"name": "CIITA-Interacting Protein 104 (CIP104) (other)", "chain": "MKMLDESIRKEEEQQQHEAGVAPQPPLKEPFASLQSPFPTDTAPTTTAPAVAVTTTTTTTTTTTATQEEEKKPPPALPPPPPLAKFPPPSQPQPPPPPPPSPASLLKSLASVLEGQKYCYRGTGAAVSTRPGPLPTTQYSPGPPSGATALPPTSAAPSAQGSPQPSASSSSQFSTSGGPWARERRAGEEPVPGPMTPTQPPPPLSLPPARSESEVLEEISRACETLVERVGRSATDPADPVDTAEPADSGTERLLPPAQAKEEAGGVAAVSGSCKRRQKEHQKEHRRHRRACKDSVGRRPREGRAKAKAKVPKEKSRRVLGNLDLQSEEIQGREKSRPDLGGASKAKPPTAPAPPSAPAPSAQPTPPSASVPGKKAREEAPGPPGVSRADMLKLRSLSEGPPKELKIRLIKVESGDKETFIASEVEERRLRMADLTISHCAADVVRASRNAKVKGKFRESYLSPAQSVKPKINTEEKLPREKLNPPTPSIYLESKRDAFSPVLLQFCTDPRNPITVIRGLAGSLRLNLGLFSTKTLVEASGEHTVEVRTQVQQPSDENWDLTGTRQIWPCESSRSHTTIAKYAQYQASSFQESLQEEKESEDEESEEPDSTTGTPPSSAPDPKNHHIIKFGTNIDLSDAKRWKPQLQELLKLPAFMRVTSTGNMLSHVGHTILGMNTVQLYMKVPGSRTPGHQENNNFWSVNINIGPGDCEWFAVHEHYWETIRAFCDRHGVDYLTGSWWPILDDLYASNIPVYRFVQRPGDLVWINAGTVHWVQATGWCNNIAWNVGPLTAYQYQLALERYEWNEVKNVKSIVPMIHVSWNVARTVKISDPDLFKMIKFCLLQSMKHCQVQRESLVRAGKKIAYQGRVKDEPAYYCNDCDVEVFNILFVTSENGSRNTYLVHCEGCARRRSAGLQGVVVLEQYRTEELAQAYDAFTLAPASTSR"}}, "biological_target": "T1, CIITA (expressed from the CIITA expression vector pCMV.CIITA) (UniProt P33076 1-1130)", "T1 sequence (looked up)": "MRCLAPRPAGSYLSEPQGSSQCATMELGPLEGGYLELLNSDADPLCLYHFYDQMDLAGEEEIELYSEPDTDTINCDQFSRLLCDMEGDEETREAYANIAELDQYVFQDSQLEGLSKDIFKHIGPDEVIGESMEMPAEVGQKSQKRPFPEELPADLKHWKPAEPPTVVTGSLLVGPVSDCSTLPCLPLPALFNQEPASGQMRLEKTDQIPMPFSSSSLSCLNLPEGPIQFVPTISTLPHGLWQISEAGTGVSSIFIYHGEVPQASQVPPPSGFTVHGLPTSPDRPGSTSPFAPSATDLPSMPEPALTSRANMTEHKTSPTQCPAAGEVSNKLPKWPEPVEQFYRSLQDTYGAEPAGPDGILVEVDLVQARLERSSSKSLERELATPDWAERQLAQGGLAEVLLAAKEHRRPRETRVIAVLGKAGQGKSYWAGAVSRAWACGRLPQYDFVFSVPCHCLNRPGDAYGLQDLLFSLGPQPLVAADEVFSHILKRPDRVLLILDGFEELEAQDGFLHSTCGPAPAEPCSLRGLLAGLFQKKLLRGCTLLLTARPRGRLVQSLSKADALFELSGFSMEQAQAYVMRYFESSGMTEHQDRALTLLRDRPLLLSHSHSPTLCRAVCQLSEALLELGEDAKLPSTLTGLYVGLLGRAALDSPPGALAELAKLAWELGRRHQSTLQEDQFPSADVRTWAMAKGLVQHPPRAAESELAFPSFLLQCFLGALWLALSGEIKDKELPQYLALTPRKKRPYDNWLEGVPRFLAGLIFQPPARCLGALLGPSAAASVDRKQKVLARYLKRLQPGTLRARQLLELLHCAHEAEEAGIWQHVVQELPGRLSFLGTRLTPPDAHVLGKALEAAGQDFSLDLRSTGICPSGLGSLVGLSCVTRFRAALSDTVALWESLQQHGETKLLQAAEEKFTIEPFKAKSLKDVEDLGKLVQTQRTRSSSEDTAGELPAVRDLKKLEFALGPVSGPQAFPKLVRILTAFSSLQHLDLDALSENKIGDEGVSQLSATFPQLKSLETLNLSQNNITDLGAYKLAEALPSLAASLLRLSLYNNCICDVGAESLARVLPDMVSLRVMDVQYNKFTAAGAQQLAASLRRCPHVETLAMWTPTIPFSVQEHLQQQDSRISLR", "assay": "cell-based or functional assay"}
{"binder": "B1", "values": [{"measurement": "CIITA-mediated DRα-CAT expression (DRα promoter CAT reporter in cotransfected cells)", "value": "~30", "unit": "fold"}]}
